Laboratory results: US20230331827A1, “POTASSIUM CHANNEL INHIBITORS” (priority 2017, published 2023)

What was measured:
[1] = tested on: activated T cells in PBMCs; test: Cytokine and Granzyme-B secretion by anti-CD3 activated PBMCs (Luminex); type: cell-based; conditions: 100 nM, 72 hours, 5 donors, compared to KB_A12
Method: Methods for measuring cytokine release from T cells are well known to those skilled in the art (eg Tarcha et al, (2012) J Pharmacology and Experimental Therapeutics, 342 p642-653). Peripheral blood mononuclear cells (PBMCs) were isolated from 5 healthy donors and were simulated by culturing in 96-well plates pre-coated with 500 ng/ml of the anti-CD3 antibody OKT3 (ebioscience, Cat. No. 16-0037-85). PBMCs were suspended at 2 × 10^6 cells/ml and 100 ul of cells suspension mixed with 100 ul of test sample (KB_A12_ShK) or positive control (free ShK toxin, Alomone labs, STS-400) or negative control (parental KnotBody KB_A12) at a final concentration of 100 nM. (Samples were in triplicate for KB_A12_ShK or duplicate for KB_A12 and free ShK). Cells were incubated at 37° C. for 72 hours, centrifuged at 1500 rpm for 5 mins at room temperature before removing 150 ul of supernatant. After 72 hours incubation, the concentration of cytokines and Granzyme-B was determined using a Luminex bead based assay according to manufacturers instructions (Thermo Fisher).

huASIC1a = biological target: T1, huASIC1a (Homo sapiens, UniProt P78348); test: QPatch electrophysiology, HEK293 cells stably expressing huASIC1a; type: cell-based; conditions: ASIC1a current at pH 6.0 after 15-20 minutes KnotBody pre-incubation, 2.3-6.6 µM
T1 construct: host or cells: HEK293
T1 sequence (P78348 1-528): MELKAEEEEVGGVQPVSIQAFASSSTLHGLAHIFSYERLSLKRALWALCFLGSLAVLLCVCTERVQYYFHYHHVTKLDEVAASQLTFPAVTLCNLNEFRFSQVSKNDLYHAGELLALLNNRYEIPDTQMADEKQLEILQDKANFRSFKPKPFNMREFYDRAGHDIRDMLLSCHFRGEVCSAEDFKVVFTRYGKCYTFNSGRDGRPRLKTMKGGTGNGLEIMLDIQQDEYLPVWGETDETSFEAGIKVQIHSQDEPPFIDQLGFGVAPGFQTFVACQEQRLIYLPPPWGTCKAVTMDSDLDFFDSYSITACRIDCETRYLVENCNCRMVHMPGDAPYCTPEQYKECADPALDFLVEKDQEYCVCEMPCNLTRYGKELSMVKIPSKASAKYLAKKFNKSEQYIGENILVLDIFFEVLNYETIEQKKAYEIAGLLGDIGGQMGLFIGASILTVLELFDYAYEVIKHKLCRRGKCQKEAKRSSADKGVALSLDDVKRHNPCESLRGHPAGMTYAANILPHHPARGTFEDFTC
Method: Knottin Kv 1.3 and ASIC1a blockers expressed in the KnotBody format (see examples 6 and 7) were tested for their ability to inhibit the function of the ion channel targets. The effect of these KnotBodies on cells expressing the human Kv 1.3 (huKv1.3) or human ASIC1a channels was assessed using QPatch automated whole-cell patch-clamp electrophysiology (Sophion).
To functionally assess the ASIC1a KnotBodies, HEK293 cells stably expressing huASIC1a (Sophion) were analysed using a QPatch electrophysiology assay in the presence or absence of the KnotBody fusions (using KB_A12 as a recipient and replacing the original EETI-II donor as shown in Table 8). The “parental” KB_A12 with the EETI-II donor was used as a negative control. Internal and external physiological solutions were freshly prepared prior to the assay. The extracellular solution contained 145 mM NaCl, 4 mM KCl, 2 mM CaCl2, 1 mM MgCl2, 10 mM HEPES and 10 mM glucose; the pH was adjusted to 7.4 with NaOH (for control, resting-state pH) or 6.0 with MES (for acidic, activating-state pH); the osmolarity was ~ 305 mOsm/L. The intracellular solution contained: CsF (140 mM), HEPES (10 mM), NaCl (10 mM) and EGTA/CsOH (1 mM/5 mM); the pH was adjusted to 7.3 with CsOH; osmolarity was ~ 320 mOsm/L.
Throughout ASIC 1a recordings the recording cell membrane voltage was clamped at -60 mV. ASIC1a baseline control currents were elicited by applying external solution at activating pH 6.0 for 3000 ms. This activating pH application was repeated three further times, giving four baseline control ASIC1a currents. The recording cells were then pre-incubated with KnotBody diluted in external solution at pH 7.4 for 15-20 minutes. Following this KnotBody pre-incubation the same concentration of KnotBody in external solution at activating pH 6.0 was applied to the cell recording.
At the end of each KnotBody incubation and subsequent ASIC1a current activation, a full blocking concentration (300 nM) of the ASIC1a knottin inhibitor PcTx1 (positive control) was perfused onto the cell recording and a final activating pH 6.0 external solution was applied. The percentage remaining signal between activating pH 6.0 baseline (i.e. pre-KnotBody) and post-KnotBody incubation was determined.

B1: KB_A12_ShK: ShK toxin in VL CDR2 of KB_A12, IgG1 (antibody, V domains shown)
VH: EVQLVESGGGLVRPGGSLRLSCAASGFTFSSYAMSWVRQAPGKGLEWVSAISGSGGSTYYADSVKGRFTISRDNTKNSLYLQMTSLRADDTAFYYCVKDFGPGYGTGWFDYWGPGTLVTVSS
VL: QSVLTQPPSVSEAPRQRVTITCSGSSSNIGNNAVNWYQQLPGKAPKLLIYAAGRRSCIDTIPKSRCTAFQCKHSMKYRLSFCRKTCGTCANSGVSDRFSAAKSGTSASLAINGLRSEDEADYYCAAWDDSLNGYVFGTGTKLTVLG
Secretion of Granzyme B [1]: reduced
Secretion of Interferon gamma [1]: reduced
Secretion of TNF-alpha [1]: reduced
Secretion of interleukin-17A [1]: reduced

B2: KB_A12: EETI-II knottin fused into VL CDR2, D1A12 VH; parental KnotBody, isotype control (antibody, V domains shown)
VH: EVQLVESGGGLVRPGGSLRLSCAASGFTFSSYAMSWVRQAPGKGLEWVSAISGSGGSTYYADSVKGRFTISRDNTKNSLYLQMTSLRADDTAFYYCVKDFGPGYGTGWFDYWGPGTLVTVSS
VL: QSVLTQPPSVSEAPRQRVTITCSGSSSNIGNNAVNWYQQLPGKAPKLLIYAAGRCPRILMRCKQDSDCLAGCVCGPNGFCGANSGVSDRFSAAKSGTSASLAINGLRSEDEADYYCAAWDDSLNGYVFGTGTKLTVLGQP
% current remaining (huASIC1a): 67.4%

B3: KB_A07: EETI-II knottin fused into VL CDR2, D1A12 VH; parental KnotBody, isotype control (antibody, V domains shown)
VH: EVQLVESGGGLVRPGGSLRLSCAASGFTFSSYAMSWVRQAPGKGLEWVSAISGSGGSTYYADSVKGRFTISRDNTKNSLYLQMTSLRADDTAFYYCVKDFGPGYGTGWFDYWGPGTLVTVSS
VL: DIQMTQSPSSLSASVGDRVTITCRASQSISSYLNWYQQKPGKAPKLLIYAAGVCPRILMRCKQDSDCLAGCVCGPNGFCGSRSGVPSRFSGSGSGTDFTLTISSLQPEDFATYYCQQGASPPYTFGQGTKVEIKRT
% current remaining (huASIC1a): 70.9%
